Here are results for 41 sequences from the nanobody polyreactivity screen of Harvey et al. (2022).

The data set in a line: yeast display, Sf9 membrane polyspecificity reagent, FACS + sequencing; frameworks hold sequencing errors. In outline: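 Nanobodies came from a synthetic yeast display library in Saccharomyces cerevisiae BJ5465, induced with galactose for 36–48 hours and stained for 1 hour at 4 °C with 10% biotinylated, detergent-solubilized Sf9 membrane reagent. Cells were enriched on streptavidin microbeads and then FACS-sorted, with low and high (top ~1%) gates set on anti-HA fluorescence for expression and streptavidin fluorescence for reagent binding. Each polyreactivity label reflects the gate a clone came from. Genes were amplified by colony PCR, sequenced by MiSeq 2 × 250 and filtered by CDR length.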
Turning to “QDQLVESGGGLVQAGGSLRLSCAASGFIFVVYAMGWYTQAPGKERELVAAITYSGGSTYYADSVKGRFTISRDNAKNTVDLQMNSLKPEDTAVYYCAAPEHDREFDYWGQGTQVTVSS”, the “polyreactivity (PSR sort gate)” value is recorded as “low polyreactivity”.

As for “QDQLVESGGGLVQAGGSLRLSCAASGFTFPVYAMGWYRQAPGKEWELVAAITRGGSTNYADSVKGRFTISRDNAKNTVYLQMNSLKPEDTAVYYCNADYAVAYHPDLGDYWGQGTQVTVSS”, the “polyreactivity (PSR sort gate)” value is on record as “low polyreactivity”.

Turning to “QDQLVESGGGLVQAGGSLRLSCAASGFTFRYYAMGWYRQAPGKEREFVAAITQSGGSTYYADSVKGRFTISRDNAKNTVYLQMNSLKPEDTAVYYCNTARVKYRWYNYWGQGTQVTVSS”, the “polyreactivity (PSR sort gate)” value is listed as “high polyreactivity”.

Regarding “QDQLVESGGGLVQAGGSLRLSCAASGFTFTRNAMGWYRQAPGKERELVAAISRGGSTNYADSVKGRFTISRDNAKNTVYLQMNSLKPEDTAVYYCAKVRTRGTPGVDYYYWGQGTQVTVSS”, the “polyreactivity (PSR sort gate)” value was “high polyreactivity”.

For “QDQLVESGGGLVQAGGSLRLSCAASGFTIDPYAMGWYRPAPGKERELVAGISWSGGSTYYADSVKGRFTISRDNAKNTVYLQMNSLKPEVTAVYYCARDYSWLTRGSDYDYWGQGTQVTVSS”, the “polyreactivity (PSR sort gate)” value was “low polyreactivity”.

For the sequence “QDQLVESGGGLVQAGGSLRLSCAASGFTIERYAMGWYRQAPGKERELVAVISTSGGSTYYADSVKGRFTISRDNGKNTVYLLMNSLKPEDTAVYYCAAPSVSQYSSKKYDYWGQGTQVTVSS”, the “polyreactivity (PSR sort gate)” value is recorded as “low polyreactivity”.

As to “QDQLVESGGGLVQAGGSLRLSCAASGGIFPPNVMGWYRQAPGKERELVAAISRSGGSTYYADSVKGRFTFSRDNAMNTVYLQMNSLKPEDTAVYYCAAANTQRGFRYDYWGQGTQVTVSS”, the “polyreactivity (PSR sort gate)” value was “high polyreactivity”.

For “QDQLVESGGGLVQAGGSLRLSCAASGGTFGPNAMGWYRQSPGKERELVAAISASGGITYYADSVKGRFTISRDNAKNTVYLQMNSLKPEDTAVYYCAAAITWIYSQAAFKIVQYDYWGQGTQVTVSS”, the “polyreactivity (PSR sort gate)” value is given as “low polyreactivity”.

For “QDQLVESGGGLVQAGGSLRLSCAASGGTFWAYAMGWYRQAPGKERENVAAIRRSGRTYYADSVKGRITISRDNAKNTVYLQMNRLKPEDTAVDYCAKYGPTPGTLRDDYWGQGTQVTVSS”, the “polyreactivity (PSR sort gate)” value is on record as “high polyreactivity”.

Take “QDQLVESGGGLVQAGGSLRLSCAASGIIFHFNDMGWYRQAPGKERELVAAITSGGSTNYADSVKGRFTISRDNAKNTLYLQMNSLKPEDTAVYYCAARRGLRLFAYRHGYWGQGTQVTVSS”: the “polyreactivity (PSR sort gate)” value was “low polyreactivity”.

For the sequence “QDQLVESGGGLVQAGGSLRLSCAASGIIVTYYAMGWYRQAPGKERELVAAISESGGITYYADSVKGRFTISRDNAKNTVYLQMISLKPEVTGVYYCNAEYWGYAWPYDYWGQGTQVTVSS”, the “polyreactivity (PSR sort gate)” value is “high polyreactivity”.

“QDQLVESGGGLVQAGGSLRLSCAASGLIFPAYTMGWSRQAQGKERELVAAISRSGGSTYYADSVKGRFTISRDNAKNTVYLQMNSLKPEDTAVYYCAAYYSGGYDYWGLGTQVTVSS”: the “polyreactivity (PSR sort gate)” value is given as “high polyreactivity”.

Regarding “QDQLVESGGGLVQAGGSLRLSCAASGLIVGDYAMGWYRQAPGKERELVAAITGSVTRTYYADSVKGRFTISRDNAKNTVYLQMNSLKPEDTAVYYCATRVHYIGFYDYDYWGQGTQVTVSS”, the “polyreactivity (PSR sort gate)” value is reported as “low polyreactivity”.

Turning to “QDQLVESGGGLVQAGGSLRLSCAASGLNFVRYAMGWYRQAPGKERELVATITWSGGTYYADSVKGRFTISRDNAKNTVYLQMNSLKPEDTAVSYCAADTPTPGLFYWFYPHRGYWGQGTQVTVSS”, the “polyreactivity (PSR sort gate)” value is “low polyreactivity”.

“QDQLVESGGGLVQAGGSLRLSCAASGLTFPYYAMGWYRQAPGKERELVAAITWSGGTTDYADSVKGRFTISRDNAKNTVYLQMNSLKPEDTAVYYCAARFLWKGYYWGQGTQVTVSS”: the “polyreactivity (PSR sort gate)” value was “low polyreactivity”.

“QDQLVESGGGLVQAGGSLRLSCAASGLTFQYNAMGWYRQAPRKERELVATISQSGGSTYYADSVKGRFTISRDNAKNTVYLQMNSLKREDTAVYYCAAYRAWTWRIRYDYWGQGTQVTVSS”: the “polyreactivity (PSR sort gate)” value was “low polyreactivity”.

As to “QDQLVESGGGLVQAGGSLRLSCAASGLTIYHYAMGWYRQAPGKERELVADISSGGSTSYADSVKGRFTISRDNAKNTVYLQMNSLKPEDTAVYYCAADYTWERYHRQIFRLDYWGQGTQVTVSS”, the “polyreactivity (PSR sort gate)” value was “low polyreactivity”.

For the sequence “QDQLVESGGGLVQAGGSLRLSCAASGNTLAANAMGWYRQAPGKERELVAAITYSGGSTYYADSVKGRFTISRDNAKNTVYLQMSSLKPEDTSVYYCNAPYVFSAGFDYWGQGTQVTVSS”, the “polyreactivity (PSR sort gate)” value is “low polyreactivity”.

“QDQLVESGGGLVQAGGSLRLSCAASGRFFKWYAMGWYRQAPGKEREFVAGISSSGTSTYYADSVKGRFTISRDNAKKTVSLQRNSLKPEDTAVYYCNKLGSTLDFGYWGQGTQVTVSS”: the “polyreactivity (PSR sort gate)” value is listed as “high polyreactivity”.

Take “QDQLVESGGGLVQAGGSLRLSCAASGRIFCSYAMGWYRQAPGKERELVAAISRRGGGTYYADSVKGRFTISRENAKNTVYLQMNSLKPEDTAFYYCAKDWYGRYYYWGQGTQVTVSS”: the “polyreactivity (PSR sort gate)” value is on record as “high polyreactivity”.

On to “QDQLVESGGGLVQAGGSLRLSCAASGRIFGFNAMGWYRQAPGKERELVAAISWRGGSTRYADSVKGRFTISRDNAKNTVYLQMNSLKPEDTAVYYCATPYADPGTVQYAGYNYWGQGTQVTVSS”, for which the “polyreactivity (PSR sort gate)” value is listed as “high polyreactivity”.

Take “QDQLVESGGGLVQAGGSLRLSCAASGRIFGINAMGWYIPAPGKERELVAAINWSGGSTYYADSVKGRFTISRDNAKNTVYLQMNSLKPEDTAVYYCATYQAGYYQSTYDYWGPGTQVTVSS”: the “polyreactivity (PSR sort gate)” value was “high polyreactivity”.

For “QDQLVESGGGLVQAGGSLRLSCAASGRIFGYYTAMGWYRQTPAKEREMVASITKSGGSTYYSDSVKGRFTITRDNAKNTVYLQKNCLKPEDTAVYYCAAAFNRYGTTSYWYRHYYWGQGTQVTVSS”, the “polyreactivity (PSR sort gate)” value was “high polyreactivity”.

For “QDQLVESGGGLVQAGGSLRLSCAASGRIFKHNAMGWYRQAPGKERELVATISIAGRTNYADSVKGRFTISRDNAKNTVYLQMNSLKPEDTAVYYCAASTFFIHTYDYWGQGTQVTVSS”, the “polyreactivity (PSR sort gate)” value is “low polyreactivity”.

On to “QDQLVESGGGLVQAGGSLRLSCAASGRIFKYNAMGWYRQAPRKERELVAAITRGGSTNYADSVKGRFTISRDNAKNTVYFQLNSLKPEDTEVYYCAALRSRYGRDMDSWGQGTQVSVSS”, for which the “polyreactivity (PSR sort gate)” value is given as “high polyreactivity”.

Regarding “QDQLVESGGGLVQAGGSLRLSCAASGRIFRTYAMGWYRQAPRQERELVAAIRSGGSTKYADSVKGRFTISRDNAKNTVYLQMKSLKPEDTAVYYCAAAVLGRYSAGDGYWGQGTQVTVSS”, the “polyreactivity (PSR sort gate)” value is on record as “low polyreactivity”.

On to “QDQLVESGGGLVQAGGSLRLSCAASGRIFSIYAMGWYRQAPGKERELVAAITRGGRTIYADSVKGRFTISRDNAKNTVYLQMNSLKPEDTAVYYCAARRIDGVVKPYDYWGQGTQVTVSS”, for which the “polyreactivity (PSR sort gate)” value is “low polyreactivity”.

“QDQLVESGGGLVQAGGSLRLSCAASGRIFTQNRMGWYRQAPGKERELVAVITSSGGSTYYADSVKGRFTISRDNAKNTVYLQMNSLKPEDTAVYYCAAQLVRYVGYYRFDYWGQGTQVTVSS”: the “polyreactivity (PSR sort gate)” value was “low polyreactivity”.

Turning to “QDQLVESGGGLVQAGGSLRLSCAASGRIFVVYAMGCYRQAPGKERELVAAITGGGRTNYADSVKGRFTISRENAKNTVYLQMKSLKPEDTAVYYCAAGTRSDARRYFYWGQGTQVTVSS”, the “polyreactivity (PSR sort gate)” value is given as “low polyreactivity”.

Regarding “QDQLVESGGGLVQAGGSLRLSCAASGRIFYLNAMGWYRQAPGKERELVAAINTSGDSTYYADSVKGRFTISRDIAKNTVYLQMNSLKQEDTAVYYCAAYVIGPDQFIYDYWGQGTQVTVSS”, the “polyreactivity (PSR sort gate)” value is listed as “low polyreactivity”.

“QDQLVESGGGLVQAGGSLRLSCAASGRNFYRYVMGWYRQAPGKERELVAAITSSGGSTYYADSVKGRFTISRDNAKNTFYLQMNSLKPEDTAVYYCAADRYTRYRYYYWGKGTQVTVSS”: the “polyreactivity (PSR sort gate)” value is “high polyreactivity”.

“QDQLVESGGGLVQAGGSLRLSCAASGRTFDDYAMGWYRQAPGKERELVAAISSSGGSTYYADSVKGRFSISRDNAKNTVYLQMNCLKPDDTAVYYCAADYDWGYWYDYWGQGTQVTVSS”: the “polyreactivity (PSR sort gate)” value is listed as “low polyreactivity”.

For the sequence “QDQLVESGGGLVQAGGSLRLSCAASGRTFDLYAMGCYRQAPGKERELVAAITKGGGSTYYADSVKGRFTISRDNAKNTVYLQMNSLKPEDTAVYYCAARKYKRIYRISSGIGYYWGQGTQVTVSS”, the “polyreactivity (PSR sort gate)” value is given as “high polyreactivity”.

With “QDQLVESGGGLVQAGGSLRLSCAASGRTFDRNAMGWYRQAPGKERELVARITIDGSTNYADSVKGRFTISRDNAKNTVYLQMNSLKPEDTAVYYCATDQLSLSWYFRPYDYGYWGQGTQVTVSS”, the “polyreactivity (PSR sort gate)” value is listed as “high polyreactivity”.

For “QDQLVESGGGLVQAGGSLRLSCAASGRTFRSYVMGWYRQAPGKERELVAAITTSGGSTYYADSVKGRFTISRDNAKNTVYLQMNSLKPEDTAVYYCAAEYYTYTGHYDSWYGDDYWGQGTQVTVSS”, the “polyreactivity (PSR sort gate)” value was “high polyreactivity”.

As for “QDQLVESGGGLVQAGGSLRLSCAASGRTFVAYAMGWSRQAPGKERELVARISSGGSTYYADSVKGRFTISRDNAKNTVYLQMNSLKPEDTAVYYCAADRGPYFVPWRRYDYWGQGTQVTVSS”, the “polyreactivity (PSR sort gate)” value is reported as “low polyreactivity”.

Consider “QDQLVESGGGLVQAGGSLRLSCAASGRTISGYVMGWYIQAPGKERELVATINGSGASTYYADSVKGRFTISRDNAKNTVYLQMNSLKPEDTAVYYCAAKRYRPKYEYYYWGQGTQVTVSS”, for which the “polyreactivity (PSR sort gate)” value is “high polyreactivity”.

Consider “QDQLVESGGGLVQAGGSLRLSCAASGSIFAGNVMGWYRQAPGKERELVAAISRRGGRTYYADSVKGRFTISRDNAKNTVYLQMNSLKPEDTAVYYCAARRDPVLGKSDYWGQGTLVTVSS”, for which the “polyreactivity (PSR sort gate)” value is “high polyreactivity”.

As to “QDQLVESGGGLVQAGGSLRLSCAASGSIFGGYGMGWYRQAHGKERELVAAITSGSSTYYADSVKGRFTISRDNAKNTVYLQMNSLKPEDTAVYYCAARPYPNSAYEGDYWGRGTQVTVSS”, the “polyreactivity (PSR sort gate)” value was “low polyreactivity”.

Regarding “QDQLVESGGGLVQAGGSLRLSCAASGSIFKINAMGWYRQAPGKERELVATITWSTGTTYYADSVKGRFTISRDNAKNTVYLQMYSLKPEDTAVYYCATDGDSTKLDYWGQGTQVTVSS”, the “polyreactivity (PSR sort gate)” value is on record as “low polyreactivity”.

As to “QDQLVESGGGLVQAGGSLRLSCAASGSIFPYNAMGWYRQAPGKERELVATISSGGSTNYADSVKGRFTISRDNAKNTVYLQMNSLKPEDTAVYYCAAVVIVFYYAPNYWGDIEYGYWGQGTQVTVSS”, the “polyreactivity (PSR sort gate)” value is recorded as “low polyreactivity”.
